Measured values reported in publication PMC11246219.

Target: PELI2 (UniProt Q9HAT8)
Assay: anti-FLAG co-IP, phospho-STING blot quantified

STING (from UniProt Q86WV6) STING-5T>A
binding against the reference (reference: STING only-T354, sites T354): lost
binding against the reference (reference: STING only-T356, sites T356): lost
